Measured values taken from IntAct's records for PubMed 23850456.

B1: Gremlin-2 (Mus musculus), O88273 (parent)
chain: MFWKLSLTLLLVAVLVKVAETRKNRPAGAIPSPYKDGSSNNSERWHHQIKEVLASSQEALVVTERKYLKSDWCKTQPLRQTVSEEGCRSRTILNRFCYGQCNSFYIPRHVKKEEDSFQSCAFCKPQRVTSVIVELECPGLDPPFRIKKIQKVKHCRCMSVNLSDSDKQ
partner: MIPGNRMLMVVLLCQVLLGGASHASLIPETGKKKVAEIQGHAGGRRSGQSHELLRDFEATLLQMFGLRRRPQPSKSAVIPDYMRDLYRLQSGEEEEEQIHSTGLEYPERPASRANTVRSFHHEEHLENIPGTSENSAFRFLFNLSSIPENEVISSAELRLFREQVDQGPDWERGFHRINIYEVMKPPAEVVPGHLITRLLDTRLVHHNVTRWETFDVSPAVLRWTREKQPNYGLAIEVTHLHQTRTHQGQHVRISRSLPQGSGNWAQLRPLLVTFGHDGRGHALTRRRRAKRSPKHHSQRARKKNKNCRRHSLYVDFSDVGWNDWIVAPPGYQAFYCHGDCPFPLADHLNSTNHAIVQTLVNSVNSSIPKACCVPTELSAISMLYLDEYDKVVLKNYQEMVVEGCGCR
B2: Gremlin-2 (Mus musculus), O88273 (parent)
chain: B1 chain
partner: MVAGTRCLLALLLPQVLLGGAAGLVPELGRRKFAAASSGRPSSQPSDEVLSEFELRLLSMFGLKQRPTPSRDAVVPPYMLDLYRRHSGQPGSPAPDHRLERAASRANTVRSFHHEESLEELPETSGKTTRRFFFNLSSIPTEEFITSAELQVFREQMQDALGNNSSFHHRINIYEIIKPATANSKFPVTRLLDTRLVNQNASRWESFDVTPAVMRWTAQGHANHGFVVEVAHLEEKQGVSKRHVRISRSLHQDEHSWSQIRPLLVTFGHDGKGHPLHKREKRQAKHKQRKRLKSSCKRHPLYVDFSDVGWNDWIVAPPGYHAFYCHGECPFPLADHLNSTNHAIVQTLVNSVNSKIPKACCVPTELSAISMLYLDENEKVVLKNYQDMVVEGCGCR

Variants of: B1
Conditions: with bmp4_human BMP4, P12644

Effect of a mutation on the interaction, decreasing interaction strength:
Y105A
F117A
Y98A
W72A
F104A

Variants of: B2
Conditions: with bmp2_human BMP2, P12643

Effect of a mutation on the interaction, decreasing interaction strength:
F104A
Y98A
Y105A
W72A
F117A
